Our source for the protein production values is a protein production outcome set (Wang et al. 2014).

This data set in a line: label from the status in PepcDB records.
“MDSYFLFFIILTSIFIVPQILKRFNVPTITATMLAGIIIGPFGLNLIQTSSTLDTFASFGVIFLMFLAGMEVDNETLKDEFKNSLVLSLFSMLIPAIGGYFIGQYFGLDFIGSLLYAVIFSSHSVGIVYALMDELGLIKSRFGTTVISASVVIDLISLIVISILIKMGGSGINSDIIPFIVLIVAYIIALLIIIPLISKLILNELQKFHVQKIHFILLIILISIIVGEHIGIHPIIGAFIIGIAVSEELTKEEHDKILNENLNAIGYGIFIPLFFLNLGMTTDISVIFNFDNLSLIFVSVVSLISLKIISGYFSLRILDYNKLKSFCGGLLTVPSLTASLVGATLGRDLGILPEKFFVAVVVIALLTSTVAPIYVKNLVSKNYDKLKLN”: the protein production entry is “failed”.
Turning to “MDTAGIRLTPKEIVSKLNEYIVGQNDAKRKVAIALRNRYRRSLLDEESKQEISPKNILMIGPTGVGKTEIARRMAKVVGAPFIKVEATKFTEVGYVGRDVESMVRDLVDVSVRLVKAQKKSLVQDEATAKANEKLVKLLVPSMKKKASQTNNPLESLFGGAIPNFGQNNEDEEEPPTEEIKTKRSEIKRQLEEGKLEKEKVRIKVEQDPGALGMLGTNQNQQMQEMMNQLMPKKKVEREVAVETARKILADSYADELIDQESANQEALELAEQMGIIFIDEIDKVATNNHNSGQDVSRQGVQRDILPILEGSVIQTKYGTVNTEHMLFIGAGAFHVSKPSDLIPELQGRFPIRVELDSLSVEDFVRILTEPKLSLIKQYEALLQTEEVTVNFTDEAITRLAEIAYQVNQDTDNIGARRLHTILEKMLEDLSFEAPSMPNAVVDITPQYVDDKLKSISTNKDLSAFIL”, the protein production entry is listed as “failed”.
In the case of “MDTAIILGLLVAVFYGVGTFFAKIVCEKNPLFQWIVVNIVGIILCLIILLKYKNIIITDQKILTYAIISAVLVVIGSLLLYYALYKGKASIVVPLSSIGPAITVALSILFLKETLTLPQMIGIVLIIIGIILLSISN”, the protein production result was “failed”.
Consider “MDTFDINTEINEDEINVEKIMEKIRENIRKQKGAGIFPEKIHGDLQQGSLLEVTPGESNIQRDLDYINSNWDIQNNSYFISSHRPFVGKFLVRGRDLVHGEIRRYVDPVFWKQTEFNGSTVRLLNDTAGKFIYYNNKIEQLQSEMDSKIEQLQSEMDSKIEHLRPELGNKIERLRSEFENQIEQLKSEIDDSIKAEVNSIISLMNLDIENKAWLASVLDGKIEKGYKNKKTGTPDPGDLDINYFRFEEQFRGSREDIKQRQSCFMNYFLGCSNVLDIGCGRGEFLELASEHGIGAKGVDIDDTMVDFCLSKGLNVVKQEAISYLESVDDKSLDGIFIDQVVEHLEPDYLIKLLKLCFQKLKYGYYIFAETVNPLSFVSFANFYIDMTHKKPIHPETLKFLLTSAGFRDVDTMFFSPVSEKARLQKVPINNDMEEWVKNYLDIYNHNLEKLNGILYGAQDYAVIGKK”, for which the protein production result is “failed”.
Regarding “MDTNNNIEKEILALVKQNPKVSLIEYENYFSQLKYNPNASKSDIAFFYAPNQVLCTTITAKYGALLKEILSQNKVGMHLAHSVDVRIEVAPKIQINAQSNINYKAIKTSVKDSYTFENFVVGSCNNTVYEIAKKVAQSDTPPYNPVLFYGGTGLGKTHILNAIGNHALEKHKKVVLVTSEDFLTDFLKHLDNKTMDSFKAKYRHCDFFLLDDAQFLQGKPKLEEEFFHTFNELHANSKQIVLISDRSPKNIAGLEDRLKSRFEWGITAKVMPPDLETKLSIVKQKCQLNQITLPEEVMEYIAQHISDNIRQMEGAIIKISVNANLMNASIDLNLAKTVLEDLQKDHAEGSSLENILLAVAQSLNLKSSEIKVSSRQKNVALARKLVVYFARLYTPNPTLSLAQFLDLKDHSSISKMYSGVKKMLEEEKSPFVLSLREEIKNRLNELNDKKTAFNSSE”, the protein production result was “failed”.
As for “MDTRKLLLTAQEISRMKGEHKVHFLNPGAVRVNKSLGDAVGLRHMGIHLIQIEPGKESTEYHLHHYEEEAVYVLSGKGTLTMENDQYPIAPGDFVGFPCHAAAHSISNDGTETLVCLVIGQRLDQDVVDYPNQHKRLYRNNGEWNLVDMADIRVLREPTQK”, the entry is “not failed”; as for “MDTSNLDTPMRMAAFDRVRGLNEVHDHLTATELQPGFLFRGERIPLVNPQRGIFKPHQMRFLLSIKTVFPKPGGKVWYDDQRDIQRQIFYGDEAIDYAFMGKNPDAADNRWLKEAYENQIPVVYFLGIAPGRYQALLPTFISGWDGQALKARITFGPNPEKLAPPSDSAERRYALRTVKQRLHQATFREAVISAYDGRCAFSGLPEPLLLDAAHIIADKDERLGHPVVTNGIPLSKIHHAAFDAHLIGIDPDFRLHVSDRLLGQNDGPMLEALKQLNGRNIRLPGRAKDHPDRDRLAMRFERYKSVA”, “failed”.
Take “MDTSTNLDIGAQLIVEECPSTYSLTGMPDIKIEHPLDPNSEEGSAQGVAMGMKFILPNRFDMNVCSRFVKSLNEEDSKNIQDQVNSDLEVASVLFKAECNIHTSPSPGIQVRHVYTPSTTKHFSPIKQSTTLTNKHRGNEVSTTPLLANSLSVHQLAAQGEMLYLATRIEQENVINHTDEEGFTPLMWAAAHGQIAVVEFLLQNGADPQLLGKGRESALSLACSKGYTDIVKMLLDCGVDVNEYDWNGGTPLLYAVHGNHVKCVKMLLESGADPTIETDSGYNSMDLAVALGYRSVQQVIESHLLKLLQNIKE”: the protein production result is given as “failed”.
With “MDTVVLVLMLLTAFNFLLKQTFWKLIAVGIITAICAVFAGLMWPYAIEQSKTQIANWLSNQPLMLDTSVLLSVEVCIQMAYAMLAVHVANDYPVKPRMILMYRFLRWFPGLLIFPVLFSGLVYLIFAFPGTSFQTIAWSYAAFILAAIPCGRFILLYLLPEKELRLELFFLTNALVAVLGIVATVNGKTSAAGVSEIDWKALTGVIVIALAGGILGLLWWNIRNRNKEKSVKQ”, the protein production result was “failed”.
For “MDVFSEYLAGIADPFHRERTEEVLTWIKNKYPNLHTEIKWNQPMFTDHGTFIIGFSVSKKHLAVAPEKVTIAHVEDDIVKAGYDYTEQLIRIPWNGPVDYTLLEKMIEFNILDKADCSTFWRK”, the protein production entry is given as “not failed”.
For “MDVPTPPPAEIYLAIQLPNPLSILVNYLPVSVTPIETLRGLVSTLEPTAINMDEFMTWPDFVLPETPFRTYFTLLLERGARPAIYLEGVRLACNFITVAHGLTMLSSISPIDAYACFSHGLFLTATGNGREVEAVNATFWDLVPSFEAANTVGELVMYHISRLHAEGTRLWNRSWRFVVSPDCLGRCSYGACCRNCFFYWYARELCIFY”, the protein production entry is “failed”.
With “MDVQIHPMIIELAAFQAAKCGSVVGFGMVPSRNPSIKAASFFGIMVVTRSHVGESKDKGKEVEIAEPIESLILWLEELVAKQNKAMMRPMSDMMGAISRSTSHKLHDEQSTRDWSLPRSSTSTDDRSGHPVYRRKNRYDQVRYDAHQHYGNLTRLGKIDISRLDGIGIKEWLFKVEEFFGVDFTLQI” the entry was “failed”; with “MDVRQRLISSMVISLGLTIISEGIVLIGIASLLHISLFFIFPALVIFWLFQWIISPYVVGRGGYEVSPNDPQYGWLYNLVRRIAEESKIKPPRVFVIDAPYPNAFAYGNRLGGMRVGITLPLLNILDVDELTAVIAHEVGHIKHRDVEIGMTIGLIPTVLGYISTLLMNFGYLALFLAADEIELLFAIAALAIGFVIFVVTFILQIFVLWFNRLRESYADYNSFLVLGEGSKALATALAKIEIYMQNIRIDPFTGIIVTAPPVKVEEKDPHLLVEQWLRTKVSAFKDILSTHPYPARRAQMIYRLIYGSNI”, “failed”.
Regarding “MDVSFEFEHYQVRLIKSSDAVTIANYFMRNRHHLAPWEPKRSHAFFTPEGWKQRLLQLVELHKHNLAFYFVVVDKNEHKIIGTVSYSNITRFPFHAGHVGYSLDSEYQGKGIMRRAVNVTIDWMFKAQNLHRIMAAYIPRNEKSAKVLAALGFVKEGEAKKYLYINGAWEDHILTSKINDDWKPE”, the protein production result was “failed”.
Consider “MDVSLPCIKIQVQTRYIEEQSNPEYQRFVFAYLITIKNLSSQTVQLMSRRWLITDADGKQTVVEGDGVVGEQPRIKANDEYTYSSGTALDTPVGVMQGQYLMIDEQGESFTVEIEPFRLAVPHVLN”, for which the protein production entry is “not failed”.
With “MDWDDEYSHNSFDLHCLLNSFPGDLEFEQIFSDIDEKIEQNAASIKHCIKEIQSEINKQCPGVQLQTTTDCFEWLTNYNYSTSESSFISHGDLIKFFKTLQDLLKNEQNQEEMTLDLLWDLSCHSSVSFPSTLSGTSFHFLSRTSLHSVEDNSSMDVKSMWDDIRLHLRRFLVSKLQSHNEINNSQQKILLKKQCLQQLLFLYPESEVIIKYQNIQNKLLANLLWNCFPSYNRDSNLDVIAHGYQSTMLKLYSVIKEDFNTLCEILAPSSMVKFIKETYLDTVTEEMAKFLENFCELQFRENAVRVVKTSKSSSKHRGAVHALG” the entry was “not failed”; with “MDWYLKVLKNYVGFRGRARRKEYWMFILVNIIFTFVLGLLDKMLGWQRAGGEGILTTIYGILVFLPWWAVQFRRLHDTDRSAWWALLFLIPFIGWLIIIVFNCQAGTARRKPLWTRSKTGTLKQICSPDV”, “failed”; with “MDWYVGTEWEDKNRGLAKKVIGLQFTEMDKPTIISTVEFSVNKKATNLGGRPSKYLVSDESATYPQKHSLEMGTSLTAVDCYLELLLQQFVPGETAACSITTKTGERIEFELKLEKIVKNTQVEKLSAAEIYEVALRLKESGVATFKTFPKFAFDYFVRAAKLLITYKPFDKLTKKTNGINGQAVEELFIQIQTNLAACLLQEKRYEHVIYHTQFVETEESPSEKSIYRRALAYYHLKEFAKAQATIERMPNYEEKREFSKLRDNIAVSWKDSKAHYKEVVQRMFS”, “failed”.
With “MDYCYTGDTHEKLFAAYRADEEPFPTQTQMEFPRREHRRPEIDILKRLFFPTCWNAAELVRDELAVLDRLDTLGGLFFAGIRPYSGSDPAETVDAVIDQLPAVRTRLKKDVEAAFKGDPAAKTYMEIIRSYPGFMAILVQRVAHTLYEAGASEYARELTEYAKTETGIDIHPGAEIGDHFFIDHGTGVVIGETTTVGEWVRLYQDVTLGALHFEADESDEHRLKKGYKRHPDIGDHVVIGAGTKVLGAISVGDHVSIGANSWVTDDIPDDTKVYVTDHPTQERKRTN” the entry was “failed”; with “MDYNKTAKDILKLLGGEKNVMSAAHCATRLRLVLKNEKEARTKEIEKLDGVKGVFSSSGQYQIIIGQGSVNKVYKAFVEGTGISESSLSDTKKAAMKNM”, “not failed”; with “MDYPNQTSSALFHSSEPLGLNLVDYLRVLLSQYWLIIGIAIGATSLTFGVSLLLPQKFRATATLQIERDVPKVMNVDNLIPVESPLDRDFYQTQYQLLQSRSLARAVIRKMNLGREPMFKPLVDKVLSKVQSLPVNTRNTAIESALIEMMLNSLKIEPILNSRLVYVHFDSHDPTLSAKVANAYAKMFIENNQQRRSNAFSFAMKYLAGRLEQLRIKVDKSERNVVAYSTDEKIVSVGDEKPSLSAQNLSDLNALLASAQNERIRAEASWRQASIGDGLSIPQVLSNLLVQSLRTDQANMVNEYQQKLSMFKPEYPEMQRLKARIKENTKQINAEVFNIRQSLKAQYEAALRQENLLNDRIAVLEKDELDLKTRLIRYNLLEREAETDRQLYDALLQRYKEISVLGDVGSNNVTVVDAADIPSRPISPNLLMNTILGGIFGVFLGLTVAMVRYSMHGAKRINVMSVE”, “failed”.
Regarding “MEAARSMTFSECAALYIKAHRSSWKNTKHADQWTNTIKTYCGPVIGPLSVQDVDTKLIMKVLDPIWEQKPETASRLRGRIESVLDWATVRGYREGDNPARWRGYLEHHHHHH”, the protein production entry is given as “not failed”.
